Data taken from patent US20230250438.

Molecular target: Transferrin receptor (TfR) (Mus musculus) (UniProt Q62351)
Assay: pulldown
Details: B = Bn-dU, unit not given

Sequence of Transferrin receptor (TfR) (Mus musculus) (Q62351 89-763): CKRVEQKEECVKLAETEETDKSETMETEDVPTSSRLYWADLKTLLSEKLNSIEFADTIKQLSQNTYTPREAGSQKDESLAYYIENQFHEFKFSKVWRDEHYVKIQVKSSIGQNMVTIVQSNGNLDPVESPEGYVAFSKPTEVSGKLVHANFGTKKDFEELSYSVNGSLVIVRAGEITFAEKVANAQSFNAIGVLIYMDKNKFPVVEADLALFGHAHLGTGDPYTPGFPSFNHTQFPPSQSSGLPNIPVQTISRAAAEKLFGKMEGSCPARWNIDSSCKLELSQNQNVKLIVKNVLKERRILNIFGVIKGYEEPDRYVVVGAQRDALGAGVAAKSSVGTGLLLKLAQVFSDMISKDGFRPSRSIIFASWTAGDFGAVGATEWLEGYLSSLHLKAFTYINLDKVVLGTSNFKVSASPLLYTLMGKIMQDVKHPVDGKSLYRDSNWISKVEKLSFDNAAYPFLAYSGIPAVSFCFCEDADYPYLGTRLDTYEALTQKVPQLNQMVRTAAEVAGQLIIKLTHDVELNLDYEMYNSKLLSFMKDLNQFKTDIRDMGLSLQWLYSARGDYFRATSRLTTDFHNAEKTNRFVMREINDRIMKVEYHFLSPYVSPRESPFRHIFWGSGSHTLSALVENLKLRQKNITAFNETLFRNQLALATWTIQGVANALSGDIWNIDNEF

With “GAATTCAAAAGTGTCGGTGATTTGCCTCGTCGCTCCAATGT [GMe 4]” as the sequence, how does the Kd (2'-OMe at G16 [Bn-dU: 4,5,12,14,18,21,22,23,27,30,34,39,41, 2'-OMe: 16], SB18, 5 mM MgCl2, 37 C) read?
The Kd was 6.33.

For “GAATTCAAAAGTGTCGGTGATTTGCCTCGTCGCUCCAATGT [UMe 11]”, which Kd (2'-OMe-U at 34 [Bn-dU: 4,5,12,14,18,21,22,23,27,30,39,41, 2'-OMe-U: 34], SB18, 5 mM MgCl2, 37 C) is on record?
Its Kd is 17.8.

For “GAATTCAAAAGTGTCGGTGATTTGCCTCGTCGCTCCAATGT [CMe 8]”, which Kd (2'-OMe at C35 [Bn-dU at 4,5,12,14,18,21,22,23,27,30,34,39,41, 2'-OMe at C35], SB18, 5 mM MgCl2, 37 C) is on record?
The Kd was 8.46.

For “GAATTCAAAAGTGTCGGTGATTTGCCTCGTCGCTCCAATGT [CMe 7]”, which Kd (2'-OMe at C33 [Bn-dU at 4,5,12,14,18,21,22,23,27,30,34,39,41, 2'-OMe at C33], Table 11 ratio 3.36 (improved)) is on record?
Its Kd is 0.363.

“GAATTCAAAAGTGTCGGTGATTTGCCTCGTCGCTCCAATGT [CMe 2]” was tested. Which Kd (2'-OMe at C15 [Bn-dU: 4,5,12,14,18,21,22,23,27,30,34,39,41, 2'-OMe: 15], SB18, 5 mM MgCl2, 37 C) did it give?
The Kd was 11.4.

“GAAUTCAAAAGTGTCGGTGATTTGCCTCGTCGCTCCAATGT [UMe 1]” was tested. Which Kd (2'-OMe-U at 4 [2'-OMe-U: 4, Bn-dU: 5,12,14,18,21,22,23,27,30,34,39,41], Table 10 ratio 0.13) did it give?
The Kd was 42.6.

With “GAATTCAAAAGTGTCGGTGATUTGCCTCGTCGCTCCAATGT [UMe 7]” as the sequence, how does the Kd (2'-OMe-U at 22 [Bn-dU: 4,5,12,14,18,21,23,27,30,34,39,41, 2'-OMe-U: 22], Table 11 ratio 2.51 (improved)) read?
The Kd was 1.84.

“GAATTCAAAAGTGTCGGTGATTTGCCTCGTCGCTCCAAUGT [UMe 12]” was tested. Which Kd (2'-OMe-U at 39 [Bn-dU: 4,5,12,14,18,21,22,23,27,30,34,41, 2'-OMe-U: 39], SB18, 5 mM MgCl2, 37 C) did it give?
Its Kd is 28.

Which Kd (2'-OMe at G29 [Bn-dU: 4,5,12,14,18,21,22,23,27,30,34,39,41, 2'-OMe: 29], SB18, 5 mM MgCl2, 37 C) does the source give for “GAATTCAAAAGTGTCGGTGATTTGCCTCGTCGCTCCAATGT [GMe 8]” here?
Its Kd is 5.39.

For “GAATTCAAAAGTGTCGGTGATTTGCCTCGTCGCTCCAATGT [CMe 3]”, which Kd (2'-OMe at C25 [Bn-dU: 4,5,12,14,18,21,22,23,27,30,34,39,41, 2'-OMe: 25], SB18, 5 mM MgCl2, 37 C) is on record?
The Kd was 11.1.

For “GAATTCAAAAGTGTCGGTGATTTGCCTCGTCGCTCCAATGU [UMe 13]”, which Kd (2'-OMe-U at 41 [Bn-dU: 4,5,12,14,18,21,22,23,27,30,34,39, 2'-OMe-U: 41], SB18, 5 mM MgCl2, 37 C) is on record?
Its Kd is 22.8.

How did the Kd (2'-OMe at C26 [Bn-dU: 4,5,12,14,18,21,22,23,27,30,34,39,41, 2'-OMe: 26], SB18, 5 mM MgCl2, 37 C) turn out when “GAATTCAAAAGTGTCGGTGATTTGCCTCGTCGCTCCAATGT [CMe 4]” was run?
Its Kd is 6.94.

With “GAATTCAAAAGTGTCGGTGATTTGCCTCGUCGCTCCAATGT [UMe 10]” as the sequence, how does the Kd (2'-OMe-U at 30 [Bn-dU: 4,5,12,14,18,21,22,23,27,34,39,41, 2'-OMe-U: 30], SB18, 5 mM MgCl2, 37 C) read?
The Kd was 25.2.

Which Kd (2'-OMe-U at 5 [2'-OMe-U: 5, Bn-dU: 4,12,14,18,21,22,23,27,30,34,39,41], Table 10 ratio 0.10) does the source give for “GAATUCAAAAGTGTCGGTGATTTGCCTCGTCGCTCCAATGT [UMe 2]” here?
The Kd was 56.4.

With “GAATTCAAAAGTGTCGGTGATTTGCCTCGTCGCTCCAATGT [GMe 2]” as the sequence, how does the Kd (2'-OMe at G11 [Bn-dU: 4,5,12,14,18,21,22,23,27,30,34,39,41, 2'-OMe-G: 11], SB18, 5 mM MgCl2, 37 C) read?
The Kd was 9.67.

Which Kd (2'-OMe-U at 14 [Bn-dU: 4,5,12,18,21,22,23,27,30,34,39,41, 2'-OMe-U: 14], Table 10 ratio 0.17) does the source give for “GAATTCAAAAGTGUCGGTGATTTGCCTCGTCGCTCCAATGT [UMe 4]” here?
Its Kd is 32.4.

With “GAATTCAAAAGTGTCGGTGATTTGCCUCGTCGCTCCAATGT [UMe 9]” as the sequence, how does the Kd (2'-OMe-U at 27 [Bn-dU: 4,5,12,14,18,21,22,23,30,34,39,41, 2'-OMe-U: 27], SB18, 5 mM MgCl2, 37 C) read?
Its Kd is 18.3.

Which Kd (2'-OMe at C36 [Bn-dU at 4,5,12,14,18,21,22,23,27,30,34,39,41, 2'-OMe at C36], SB18, 5 mM MgCl2, 37 C) does the source give for “GAATTCAAAAGTGTCGGTGATTTGCCTCGTCGCTCCAATGT [CMe 9]” here?
Its Kd is 7.66.
